According to patent US12699101B2, “Maximizing hydrophobic peptide recovery using a mass spectrometry compatible surfactant” (Regeneron Pharmaceuticals, Inc., priority 2022, dated 2026):
Where no end group is shown, it is not given here.

Test: PRM target quantification of synthetic mAb peptide standards diluted with DDM, FA or cell digest matrix
Assay type: physicochemical
Conditions: 10 fmol/μl peptide mixture, triplicate; for Ratio of Average Peak Area DDM Diluted/FA Diluted: 0.015% DDM vs 0.1% FA (control); for Ratio of Average Peak Area Matrix Diluted/FA Diluted: complex HeLa cell lysate digest matrix vs 0.1% FA (control)
Experimental: HeLa cell lysate protein digests were diluted to 0.05 ng/μL by 0.1% FA or 0.015% DDM solution, and 0.2 ng (4 μL) was injected onto the LC-MS to simulate single cell sample analysis. Sixteen synthetic peptides from a mAb's constant region and CDR were diluted and mixed to a final concentration of 10 fmol/μL by 0.1% FA, 0.015% DDM solution or complex cell digest matrix. In reconstitution experiments, 20 μL of 500 fmol/μL BSA digests and 200 ng/μL HeLa digests were aliquoted into vials and dried in vacuo. Dried samples were reconstituted by 0.1% FA or 0.015% DDM solution. One picomole BSA digests and 100 ng HeLa digests were loaded onto the column for nanoLC-MS/MS analysis.
PRM target quantification was performed on an Orbitrap Exploris 480 mass spectrometer equipped with an UltiMate 3000 RSLCnano system and 75 μm ID×25 cm C18 column (CoAnn Technologies, 360 μm OD). A short gradient with a flow rate of 0.3 μL/min was set up as follows: 5% B at 0 min, 8% B at 3 min, 40% B at 20 min, and 95% B from 30-35 min. The m/z of the most intense surrogate peptide peak was selected for PRM analysis with 5 minutes windows. MS/MS spectra were acquired using HCD with a normalized collision energy of 30% at a resolution of 30K (m/z 200) and a maximum injection time of 100 ms.
Database searches for protein identification were performed using SEQUEST and Mascot embedded into Proteome Discoverer 2.2 (Thermo Fisher Scientific). The human UniProt target-decoy protein database including common contaminants was used for HeLa sample database searches. Precursor ion mass tolerance was set to 20 ppm and fragment ion mass tolerance was set to 0.02 Da. Trypsin was specified as the digestion enzyme during the database search with one missed cleavage allowed. Methionine oxidation (+16 Da) was selected as a variable modification and cysteine carbamidomethylation was chosen as a fixed modification for the normal (alkylated) digests. False discovery rates (FDRs) were set to 1% for peptide identification and 5% for protein identification. Peptide mapping and BSA sample data were analyzed using Protein Metrics Byonic™ (version 3.11.3) by searching the raw files against the mAb or BSA protein sequence. All peptide quantification was executed using Skyline Daily software (University of Washington, WA) by extracting the MS' peak area of all detected charge states. The three most intense fragment peaks free of interference were selected for PRM target quantification. Empower (Milford, MA) was employed to extract UV chromatogram peak areas. The peptide hydrophobicity was calculated using the Peptide Synthesis and Proteotypic Peptide Analyzing Tool from ThermoFisher Scientific (Waltham, MA). GraphPad Prism 9.0.2 (San Diego, CA) was used for correlation analysis and p-value calculation.
In order to optimize a method for characterizing peptides for PK studies, sixteen peptides from different mAb molecules, including 13 CDR peptides and three constant region peptides, were selected and synthesized. Information for the synthetic peptide standards, including stock concentration, dilution, hydrophobicity index value, and retention time is shown in Table 1. All synthetic peptide standards were diluted and mixed as a single peptide mixture with a final concentration of 10 fmol/μl using either a DDM solution, formic acid solution (control) or complex HeLa cell lysate digest matrix. PRM acquisition was then used to quantify the peak area of these 16 target peptides and compare results between different samples. Detailed PRM setting information is listed in Table 2 including m/z value and charge states of each target peptide. Each sample was analyzed in triplicate, and average peak areas for each peptide from the DDM prepared samples and matrix prepared samples were compared with the control samples.

Substance	Ratio of Average Peak Area DDM Diluted/FA Diluted	Ratio of Average Peak Area Matrix Diluted/FA Diluted
DIATYYCQQH [synthetic mAb CDR peptide standard]	1.1	1.4
VTISCTGSSSNIGTHY [synthetic mAb CDR peptide standard]	1.1	1.4
LSCAASGITFSNAWMSWVR [synthetic mAb CDR peptide standard]	37.9	16.9
TNYLTHR [synthetic mAb CDR peptide standard]	1.7	0.4
LLIYAASNLETGVPSR (also: Arg16 stable isotope labeled, +10 Da) [synthetic mAb CDR peptide standard]	5.5	2.7
GLEWVAVISYDGSNK [synthetic mAb CDR peptide standard]	10.3	4.7
LSCAASGFTFSNYAMYWVR [synthetic mAb CDR peptide standard]	29.4	9.2
DWNQNNWF [synthetic mAb CDR peptide standard]	2.4	3.0
DNSLTAPYVFGTGTK [synthetic mAb CDR peptide standard]	1.4	1.1
DTAVYYCASGS [synthetic mAb CDR peptide standard]	0.9	0.6
LLIYDASNLK [synthetic mAb CDR peptide standard]	1.2	1.4
NQVSLTCLVK [synthetic mAb constant region peptide standard]	0.7	1.1
LMIYDVSK [synthetic mAb CDR peptide standard]	1.1	1.3
TNYLKPTHQTNTIIDVVLSPSH [synthetic mAb constant region peptide standard]	18.4	32.1
VVSVLTVLHQDWLNGK [synthetic mAb constant region peptide standard]	12.1	33.2
